# Assays:
# NF-κB RelA (p65) = NF-κB RelA (p65) (UniProt Q04206 1-551); assay: fluorescence anisotropy
# FOXO3 = FOXO3 (UniProt O43524 1-673); assay: fluorescence anisotropy
# FOXO3, sequence (O43524 whole entry): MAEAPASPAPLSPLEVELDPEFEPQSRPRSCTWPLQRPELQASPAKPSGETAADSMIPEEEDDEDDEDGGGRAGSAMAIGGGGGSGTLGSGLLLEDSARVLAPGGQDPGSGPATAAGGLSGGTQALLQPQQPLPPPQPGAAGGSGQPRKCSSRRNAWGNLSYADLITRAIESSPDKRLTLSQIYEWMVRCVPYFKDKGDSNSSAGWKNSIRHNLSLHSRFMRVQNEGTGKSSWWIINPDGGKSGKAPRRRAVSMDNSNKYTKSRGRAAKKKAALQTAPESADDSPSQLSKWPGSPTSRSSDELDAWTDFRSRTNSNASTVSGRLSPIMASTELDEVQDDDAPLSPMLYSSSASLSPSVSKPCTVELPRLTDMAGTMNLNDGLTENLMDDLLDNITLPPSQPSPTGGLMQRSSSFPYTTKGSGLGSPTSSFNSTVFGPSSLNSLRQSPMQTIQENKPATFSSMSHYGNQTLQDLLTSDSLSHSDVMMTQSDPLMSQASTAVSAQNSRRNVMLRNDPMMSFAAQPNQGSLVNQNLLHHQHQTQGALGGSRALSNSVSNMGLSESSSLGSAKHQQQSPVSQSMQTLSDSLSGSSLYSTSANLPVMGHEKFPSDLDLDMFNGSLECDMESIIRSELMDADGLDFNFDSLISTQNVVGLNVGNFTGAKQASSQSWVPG
# NF-κB RelA (p65), sequence (Q04206 whole entry): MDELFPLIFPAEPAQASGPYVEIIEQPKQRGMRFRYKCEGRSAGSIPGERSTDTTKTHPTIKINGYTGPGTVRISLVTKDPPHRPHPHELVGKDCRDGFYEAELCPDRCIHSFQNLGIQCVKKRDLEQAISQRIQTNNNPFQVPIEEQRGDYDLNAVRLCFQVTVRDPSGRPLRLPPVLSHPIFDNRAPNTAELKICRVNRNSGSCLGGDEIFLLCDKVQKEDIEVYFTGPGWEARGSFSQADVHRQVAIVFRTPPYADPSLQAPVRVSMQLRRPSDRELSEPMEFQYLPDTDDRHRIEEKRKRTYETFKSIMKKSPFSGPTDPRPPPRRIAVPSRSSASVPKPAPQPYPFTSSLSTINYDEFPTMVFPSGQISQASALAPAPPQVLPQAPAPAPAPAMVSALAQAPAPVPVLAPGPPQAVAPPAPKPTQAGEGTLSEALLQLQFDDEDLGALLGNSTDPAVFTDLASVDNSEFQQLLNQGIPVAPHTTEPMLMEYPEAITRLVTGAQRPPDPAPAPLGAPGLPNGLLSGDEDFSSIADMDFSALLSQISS
binder,measurement,setting,value
FOXO3 consensus duplex (dsDNA) DNA 1: CGCATCCTATGTAAACAACTCGAGTC DNA 2: GACTCGAGTTGTTTACATAGGATGCG,binding result,NF-κB RelA (p65),no binding
same,binding result,FOXO3,binds

# — publication PMC4670825
